Experimental findings from PMC5039643, “Independent multimerization of Latent TGFβ Binding Protein-1 stabilized by cross-linking and enhanced by heparan sulfate” (Scientific Reports, 2016) are described below.

For series [1], the target named is Latent TGFβ Binding Protein-1, short form (LTBP1S), full length. Put plainly: negative stain EM; LTBP1 oligomers imaged by negative stain EM; lengths measured with ImageJ (n = 100 from 32 images).
Series [2] shares this target. Put plainly: SEC-MALS; Superdex 200 or Superose 6; 0.5 ml at ~0.5 mg/ml; 10 mM Tris, 150 mM NaCl, 2 mM CaCl2, pH 7.4; self-association; NT2 monomer also stored overnight at 4 °C in 2 mM calcium and the dimer fraction rerun. Background: SEC sorts molecules by how far they enter the pores of the column.
Series [3] deals with the molecule itself. Put plainly: AUC; ~0.5 mg/ml; 10 mM Tris, 150 mM NaCl, 2 mM CaCl2, pH 7.4; self-association; NT1 also after 12 h pre-incubation with ~10x molar excess of low molecular weight heparin.
Series [4] deals with the molecule itself. Put plainly: SEC-MALS; Superdex 200 or Superose 6; 0.5 ml at ~0.5 mg/ml; 10 mM Tris, 150 mM NaCl, 2 mM CaCl2, pH 7.4; self-association; NT2 monomer also stored overnight at 4 °C in 2 mM calcium and the dimer fraction rerun.

As usually defined, the stoichiometry N is the number of molecules, sites or subunits per partner or assembly. In the case of “Latent TGFβ Binding Protein-1, short form (LTBP1S), full length (natural protein)”, the stoichiometry N in series [1] and in series [2] was 4 to 5 throughout.

B1: LTBP1 N-terminal construct NT1 (residues 21–488) (domain or fragment, UniProt Q14766-2 21-488, looked up)
chain: NHTGRIKVVFTPSICKVTCTKGSCQNSCEKGNTTTLISENGHAADTLTATNFRVVICHLPCMNGGQCSSRDKCQCPPNFTGKLCQIPVHGASVPKLYQHSQQPGKALGTHVIHSTHTLPLTVTSQQGVKVKFPPNIVNIHVKHPPEASVQIHQVSRIDGPTGQKTKEAQPGQSQVSYQGLPVQKTQTIHSTYSHQQVIPHVYPVAAKTQLGRCFQETIGSQCGKALPGLSKQEDCCGTVGTSWGFNKCQKCPKKPSYHGYNQMMECLPGYKRVNNTFCQDINECQLQGVCPNGECLNTMGSYRCTCKIGFGPDPTFSSCVPDPPVISEEKGPCYRLVSSGRQCMHPLSVHLTKQLCCCSVGKAWGPHCEKCPLPGTAAFKEICPGGMGYTVSGVHRRRPIHHHVGKGPVFVKPKNTQPVAKSTHPPPLPAKEEPVEALTFSREHGPGVAEPEVATAPPEKEIPSLDQE
notes: LTBP1S residues 21-488; also called NT1 region
With B1, the “stoichiometry N” value in series [3] turned out to be 2.

B2: LTBP1 N-terminal construct NT2 (residues 21–630) (domain or fragment, UniProt Q14766-2 21-630, looked up)
chain: NHTGRIKVVFTPSICKVTCTKGSCQNSCEKGNTTTLISENGHAADTLTATNFRVVICHLPCMNGGQCSSRDKCQCPPNFTGKLCQIPVHGASVPKLYQHSQQPGKALGTHVIHSTHTLPLTVTSQQGVKVKFPPNIVNIHVKHPPEASVQIHQVSRIDGPTGQKTKEAQPGQSQVSYQGLPVQKTQTIHSTYSHQQVIPHVYPVAAKTQLGRCFQETIGSQCGKALPGLSKQEDCCGTVGTSWGFNKCQKCPKKPSYHGYNQMMECLPGYKRVNNTFCQDINECQLQGVCPNGECLNTMGSYRCTCKIGFGPDPTFSSCVPDPPVISEEKGPCYRLVSSGRQCMHPLSVHLTKQLCCCSVGKAWGPHCEKCPLPGTAAFKEICPGGMGYTVSGVHRRRPIHHHVGKGPVFVKPKNTQPVAKSTHPPPLPAKEEPVEALTFSREHGPGVAEPEVATAPPEKEIPSLDQEKTKLEPGQPQLSPGISTIHLHPQFPVVIEKTSPPVPVEVAPEASTSSASQVIAPTQVTEINECTVNPDICGAGHCINLPVRYTCICYEGYRFSEQQRKCVDIDECTQVQHLCSQGRCENTEGSFLCICPAGFMASEEGTNCI
notes: LTBP1S residues 21-630; also called NT2 region
B2: the “stoichiometry N” value in series [4] turned out to be 2.
